Data: patent publication US11965039B2, “Compstatin analogues and their medical uses” (priority 2018, dated 2024)
Positions of bridges follow the written chain, without caps; N, C: chain ends.

B1: Compound 18 (peptide)
peptide: Ac-ICIWQDWGRHRCT-NH2
modifications: disulfide 2-12
SMILES: CC[C@H](C)[C@H](NC(C)=O)C(=O)N[C@H]1CSSC[C@@H](C(=O)N[C@H](C(N)=O)[C@@H](C)O)NC(=O)[C@H](CCCNC(=N)N)NC(=O)[C@H](Cc2c[nH]cn2)NC(=O)[C@H](CCCNC(=N)N)NC(=O)CNC(=O)[C@H](Cc2c[nH]c3ccccc23)NC(=O)[C@H](CC(=O)O)NC(=O)[C@H](CCC(N)=O)NC(=O)[C@H](Cc2c[nH]c3ccccc23)NC(=O)[C@H]([C@@H](C)CC)NC1=O
B2: Compound 31 (peptide)
peptide: Ac-ESEICIWQDWGEHRCT-NH2
modifications: disulfide 5-15
SMILES: CC[C@H](C)[C@@H]1NC(=O)[C@@H](NC(=O)[C@@H](NC(=O)[C@H](CCC(=O)O)NC(=O)[C@H](CO)NC(=O)[C@H](CCC(=O)O)NC(C)=O)[C@@H](C)CC)CSSC[C@@H](C(=O)N[C@H](C(N)=O)[C@@H](C)O)NC(=O)[C@H](CCCNC(=N)N)NC(=O)[C@H](Cc2c[nH]cn2)NC(=O)[C@H](CCC(=O)O)NC(=O)CNC(=O)[C@H](Cc2c[nH]c3ccccc23)NC(=O)[C@H](CC(=O)O)NC(=O)[C@H](CCC(N)=O)NC(=O)[C@H](Cc2c[nH]c3ccccc23)NC1=O
B3: Compound 27 (peptide)
peptide: Ac-ICIWQDWGEHRCEGE-NH2
modifications: disulfide 2-12
SMILES: CC[C@H](C)[C@H](NC(C)=O)C(=O)N[C@H]1CSSC[C@@H](C(=O)N[C@@H](CCC(=O)O)C(=O)NCC(=O)N[C@@H](CCC(=O)O)C(N)=O)NC(=O)[C@H](CCCNC(=N)N)NC(=O)[C@H](Cc2c[nH]cn2)NC(=O)[C@H](CCC(=O)O)NC(=O)CNC(=O)[C@H](Cc2c[nH]c3ccccc23)NC(=O)[C@H](CC(=O)O)NC(=O)[C@H](CCC(N)=O)NC(=O)[C@H](Cc2c[nH]c3ccccc23)NC(=O)[C@H]([C@@H](C)CC)NC1=O
B4: Compound 33 (peptide)
peptide: Ac-EICIWQDWGEHRCTE-NH2
modifications: disulfide 3-13
SMILES: CC[C@H](C)[C@@H]1NC(=O)[C@@H](NC(=O)[C@@H](NC(=O)[C@H](CCC(=O)O)NC(C)=O)[C@@H](C)CC)CSSC[C@@H](C(=O)N[C@H](C(=O)N[C@@H](CCC(=O)O)C(N)=O)[C@@H](C)O)NC(=O)[C@H](CCCNC(=N)N)NC(=O)[C@H](Cc2c[nH]cn2)NC(=O)[C@H](CCC(=O)O)NC(=O)CNC(=O)[C@H](Cc2c[nH]c3ccccc23)NC(=O)[C@H](CC(=O)O)NC(=O)[C@H](CCC(N)=O)NC(=O)[C@H](Cc2c[nH]c3ccccc23)NC1=O
B5: Compound 14 (peptide)
peptide: Ac-ESSAICIWQDWGEHRCTGAES-NH2
modifications: disulfide 6-16
SMILES: CC[C@H](C)[C@H](NC(=O)[C@H](C)NC(=O)[C@H](CO)NC(=O)[C@H](CO)NC(=O)[C@H](CCC(=O)O)NC(C)=O)C(=O)N[C@H]1CSSC[C@@H](C(=O)N[C@H](C(=O)NCC(=O)N[C@@H](C)C(=O)N[C@@H](CCC(=O)O)C(=O)N[C@@H](CO)C(N)=O)[C@@H](C)O)NC(=O)[C@H](CCCNC(=N)N)NC(=O)[C@H](Cc2c[nH]cn2)NC(=O)[C@H](CCC(=O)O)NC(=O)CNC(=O)[C@H](Cc2c[nH]c3ccccc23)NC(=O)[C@H](CC(=O)O)NC(=O)[C@H](CCC(N)=O)NC(=O)[C@H](Cc2c[nH]c3ccccc23)NC(=O)[C@H]([C@@H](C)CC)NC1=O
B6: Compound 30 (peptide)
peptide: Ac-EGEICIWQDWGEHRCT-NH2
modifications: disulfide 5-15
SMILES: CC[C@H](C)[C@@H]1NC(=O)[C@@H](NC(=O)[C@@H](NC(=O)[C@H](CCC(=O)O)NC(=O)CNC(=O)[C@H](CCC(=O)O)NC(C)=O)[C@@H](C)CC)CSSC[C@@H](C(=O)N[C@H](C(N)=O)[C@@H](C)O)NC(=O)[C@H](CCCNC(=N)N)NC(=O)[C@H](Cc2c[nH]cn2)NC(=O)[C@H](CCC(=O)O)NC(=O)CNC(=O)[C@H](Cc2c[nH]c3ccccc23)NC(=O)[C@H](CC(=O)O)NC(=O)[C@H](CCC(N)=O)NC(=O)[C@H](Cc2c[nH]c3ccccc23)NC1=O
B7: Compound 16 (peptide)
peptide: Ac-ICIWQEWGEHRCT-NH2
modifications: disulfide 2-12
SMILES: CC[C@H](C)[C@H](NC(C)=O)C(=O)N[C@H]1CSSC[C@@H](C(=O)N[C@H](C(N)=O)[C@@H](C)O)NC(=O)[C@H](CCCNC(=N)N)NC(=O)[C@H](Cc2c[nH]cn2)NC(=O)[C@H](CCC(=O)O)NC(=O)CNC(=O)[C@H](Cc2c[nH]c3ccccc23)NC(=O)[C@H](CCC(=O)O)NC(=O)[C@H](CCC(N)=O)NC(=O)[C@H](Cc2c[nH]c3ccccc23)NC(=O)[C@H]([C@@H](C)CC)NC1=O
B8: Compound 35 (peptide)
peptide: Ac-EGEICIWQDWGEHRCEGE-NH2
modifications: disulfide 5-15
SMILES: CC[C@H](C)[C@@H]1NC(=O)[C@@H](NC(=O)[C@@H](NC(=O)[C@H](CCC(=O)O)NC(=O)CNC(=O)[C@H](CCC(=O)O)NC(C)=O)[C@@H](C)CC)CSSC[C@@H](C(=O)N[C@@H](CCC(=O)O)C(=O)NCC(=O)N[C@@H](CCC(=O)O)C(N)=O)NC(=O)[C@H](CCCNC(=N)N)NC(=O)[C@H](Cc2c[nH]cn2)NC(=O)[C@H](CCC(=O)O)NC(=O)CNC(=O)[C@H](Cc2c[nH]c3ccccc23)NC(=O)[C@H](CC(=O)O)NC(=O)[C@H](CCC(N)=O)NC(=O)[C@H](Cc2c[nH]c3ccccc23)NC1=O
B9: Compound 22 (peptide)
peptide: Ac-ICIWQDWGEHRCE-NH2
modifications: disulfide 2-12
SMILES: CC[C@H](C)[C@H](NC(C)=O)C(=O)N[C@H]1CSSC[C@@H](C(=O)N[C@@H](CCC(=O)O)C(N)=O)NC(=O)[C@H](CCCNC(=N)N)NC(=O)[C@H](Cc2c[nH]cn2)NC(=O)[C@H](CCC(=O)O)NC(=O)CNC(=O)[C@H](Cc2c[nH]c3ccccc23)NC(=O)[C@H](CC(=O)O)NC(=O)[C@H](CCC(N)=O)NC(=O)[C@H](Cc2c[nH]c3ccccc23)NC(=O)[C@H]([C@@H](C)CC)NC1=O
B10: Compound 25 (peptide)
peptide: Ac-ICIWQDWGEHRCTEA-NH2
modifications: disulfide 2-12
SMILES: CC[C@H](C)[C@H](NC(C)=O)C(=O)N[C@H]1CSSC[C@@H](C(=O)N[C@H](C(=O)N[C@@H](CCC(=O)O)C(=O)N[C@@H](C)C(N)=O)[C@@H](C)O)NC(=O)[C@H](CCCNC(=N)N)NC(=O)[C@H](Cc2c[nH]cn2)NC(=O)[C@H](CCC(=O)O)NC(=O)CNC(=O)[C@H](Cc2c[nH]c3ccccc23)NC(=O)[C@H](CC(=O)O)NC(=O)[C@H](CCC(N)=O)NC(=O)[C@H](Cc2c[nH]c3ccccc23)NC(=O)[C@H]([C@@H](C)CC)NC1=O
B11: Compound 36 (peptide)
peptide: Ac-ESEICIWQDWGEHRCEGE-NH2
modifications: disulfide 5-15
SMILES: CC[C@H](C)[C@@H]1NC(=O)[C@@H](NC(=O)[C@@H](NC(=O)[C@H](CCC(=O)O)NC(=O)[C@H](CO)NC(=O)[C@H](CCC(=O)O)NC(C)=O)[C@@H](C)CC)CSSC[C@@H](C(=O)N[C@@H](CCC(=O)O)C(=O)NCC(=O)N[C@@H](CCC(=O)O)C(N)=O)NC(=O)[C@H](CCCNC(=N)N)NC(=O)[C@H](Cc2c[nH]cn2)NC(=O)[C@H](CCC(=O)O)NC(=O)CNC(=O)[C@H](Cc2c[nH]c3ccccc23)NC(=O)[C@H](CC(=O)O)NC(=O)[C@H](CCC(N)=O)NC(=O)[C@H](Cc2c[nH]c3ccccc23)NC1=O
B12: Compound 26 (peptide)
peptide: Ac-ICIWQDWGEHRCTE-NH2
modifications: disulfide 2-12
SMILES: CC[C@H](C)[C@H](NC(C)=O)C(=O)N[C@H]1CSSC[C@@H](C(=O)N[C@H](C(=O)N[C@@H](CCC(=O)O)C(N)=O)[C@@H](C)O)NC(=O)[C@H](CCCNC(=N)N)NC(=O)[C@H](Cc2c[nH]cn2)NC(=O)[C@H](CCC(=O)O)NC(=O)CNC(=O)[C@H](Cc2c[nH]c3ccccc23)NC(=O)[C@H](CC(=O)O)NC(=O)[C@H](CCC(N)=O)NC(=O)[C@H](Cc2c[nH]c3ccccc23)NC(=O)[C@H]([C@@H](C)CC)NC1=O
B13: Compound 32 (peptide)
peptide: Ac-SEICIWQDWGEHRCTEA-NH2
modifications: disulfide 4-14
SMILES: CC[C@H](C)[C@@H]1NC(=O)[C@@H](NC(=O)[C@@H](NC(=O)[C@H](CCC(=O)O)NC(=O)[C@H](CO)NC(C)=O)[C@@H](C)CC)CSSC[C@@H](C(=O)N[C@H](C(=O)N[C@@H](CCC(=O)O)C(=O)N[C@@H](C)C(N)=O)[C@@H](C)O)NC(=O)[C@H](CCCNC(=N)N)NC(=O)[C@H](Cc2c[nH]cn2)NC(=O)[C@H](CCC(=O)O)NC(=O)CNC(=O)[C@H](Cc2c[nH]c3ccccc23)NC(=O)[C@H](CC(=O)O)NC(=O)[C@H](CCC(N)=O)NC(=O)[C@H](Cc2c[nH]c3ccccc23)NC1=O
B14: Compound 17 (peptide)
peptide: Ac-ICIWQDWGDHRCT-NH2
modifications: disulfide 2-12
SMILES: CC[C@H](C)[C@H](NC(C)=O)C(=O)N[C@H]1CSSC[C@@H](C(=O)N[C@H](C(N)=O)[C@@H](C)O)NC(=O)[C@H](CCCNC(=N)N)NC(=O)[C@H](Cc2c[nH]cn2)NC(=O)[C@H](CC(=O)O)NC(=O)CNC(=O)[C@H](Cc2c[nH]c3ccccc23)NC(=O)[C@H](CC(=O)O)NC(=O)[C@H](CCC(N)=O)NC(=O)[C@H](Cc2c[nH]c3ccccc23)NC(=O)[C@H]([C@@H](C)CC)NC1=O
B15: Compound 34 (peptide)
peptide: Ac-EICIWQDWGEHRCTEGE-NH2
modifications: disulfide 3-13
SMILES: CC[C@H](C)[C@@H]1NC(=O)[C@@H](NC(=O)[C@@H](NC(=O)[C@H](CCC(=O)O)NC(C)=O)[C@@H](C)CC)CSSC[C@@H](C(=O)N[C@H](C(=O)N[C@@H](CCC(=O)O)C(=O)NCC(=O)N[C@@H](CCC(=O)O)C(N)=O)[C@@H](C)O)NC(=O)[C@H](CCCNC(=N)N)NC(=O)[C@H](Cc2c[nH]cn2)NC(=O)[C@H](CCC(=O)O)NC(=O)CNC(=O)[C@H](Cc2c[nH]c3ccccc23)NC(=O)[C@H](CC(=O)O)NC(=O)[C@H](CCC(N)=O)NC(=O)[C@H](Cc2c[nH]c3ccccc23)NC1=O

Target: Human C3 (Complement tech cat #A113c) (human, UniProt P01024 23-1663)
Sequence (P01024 23-1663 limits assumed): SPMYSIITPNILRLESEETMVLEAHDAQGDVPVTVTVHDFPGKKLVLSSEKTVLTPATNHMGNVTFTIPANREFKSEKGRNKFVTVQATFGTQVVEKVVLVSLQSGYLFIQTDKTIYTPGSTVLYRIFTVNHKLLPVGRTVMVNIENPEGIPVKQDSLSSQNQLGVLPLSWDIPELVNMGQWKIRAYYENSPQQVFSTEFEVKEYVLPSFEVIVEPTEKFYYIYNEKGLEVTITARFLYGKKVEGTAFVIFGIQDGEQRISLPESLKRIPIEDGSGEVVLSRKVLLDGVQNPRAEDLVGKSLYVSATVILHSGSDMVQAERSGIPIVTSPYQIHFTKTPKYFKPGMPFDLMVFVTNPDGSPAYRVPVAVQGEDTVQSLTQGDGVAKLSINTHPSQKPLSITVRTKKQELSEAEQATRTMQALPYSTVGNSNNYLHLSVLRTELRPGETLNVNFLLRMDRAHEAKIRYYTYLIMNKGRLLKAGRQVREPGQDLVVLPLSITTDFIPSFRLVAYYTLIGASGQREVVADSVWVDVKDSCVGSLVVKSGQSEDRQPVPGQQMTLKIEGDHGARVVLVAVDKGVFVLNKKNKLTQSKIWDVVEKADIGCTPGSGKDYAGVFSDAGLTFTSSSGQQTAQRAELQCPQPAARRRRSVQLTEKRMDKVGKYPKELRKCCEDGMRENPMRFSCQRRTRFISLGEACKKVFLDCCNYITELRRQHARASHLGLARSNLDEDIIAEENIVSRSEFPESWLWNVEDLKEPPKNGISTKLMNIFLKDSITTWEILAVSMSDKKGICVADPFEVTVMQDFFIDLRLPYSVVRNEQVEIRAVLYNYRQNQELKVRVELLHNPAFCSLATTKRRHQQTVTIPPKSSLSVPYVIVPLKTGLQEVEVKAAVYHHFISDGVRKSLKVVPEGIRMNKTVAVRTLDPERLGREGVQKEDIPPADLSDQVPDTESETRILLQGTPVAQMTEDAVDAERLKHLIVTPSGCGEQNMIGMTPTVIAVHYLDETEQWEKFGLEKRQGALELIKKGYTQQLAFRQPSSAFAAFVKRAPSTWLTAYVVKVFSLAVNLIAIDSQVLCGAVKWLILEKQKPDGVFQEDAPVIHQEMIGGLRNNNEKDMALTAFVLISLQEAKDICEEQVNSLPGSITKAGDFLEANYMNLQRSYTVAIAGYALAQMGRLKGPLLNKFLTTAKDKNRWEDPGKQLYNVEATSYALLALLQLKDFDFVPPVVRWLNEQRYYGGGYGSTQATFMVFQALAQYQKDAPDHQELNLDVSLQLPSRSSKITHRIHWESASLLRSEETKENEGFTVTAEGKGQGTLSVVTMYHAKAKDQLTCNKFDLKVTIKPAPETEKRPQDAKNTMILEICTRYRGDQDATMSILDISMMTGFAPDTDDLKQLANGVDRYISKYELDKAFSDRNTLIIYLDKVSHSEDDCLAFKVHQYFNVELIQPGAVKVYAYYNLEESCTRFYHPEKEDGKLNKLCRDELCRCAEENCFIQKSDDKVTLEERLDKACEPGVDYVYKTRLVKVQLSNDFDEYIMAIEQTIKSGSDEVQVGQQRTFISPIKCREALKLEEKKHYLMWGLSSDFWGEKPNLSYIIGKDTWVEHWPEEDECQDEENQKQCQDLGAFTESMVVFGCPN
Test: cell-based or functional assay

Row | Binder | inhibition of hemolysis IC50 [nM]
1 | B1 | < 100
2 | B2 | < 100
3 | B3 | < 100
4 | B4 | < 100
5 | B5 | < 100
6 | B6 | < 100
7 | B7 | < 100
8 | B8 | < 500
9 | B9 | < 100
10 | B10 | < 100
11 | B11 | < 250
12 | B12 | < 100
13 | B13 | < 100
14 | B14 | < 100
15 | B15 | < 250
